Data taken from patent US20170189519A1.

Assays:
Assay in all cases: ELISA, coated CR6261, P. pastoris medium
Settings in all cases: remark: other sources report otherwise
[1] = target: 101D4 (influenza A H1N1 A/Brisbane/59/2007)
[2] = target: 104C4 (influenza A H1N1 A/Brisbane/59/2007)
[3] = target: 115A1 (influenza A H1N1 A/Brisbane/59/2007)
[4] = target: 127A7 (influenza A H1N1 A/Brisbane/59/2007)
[5] = target: 127H1 (influenza A H1N1 A/Brisbane/59/2007)
[6] = target: 171E5 (influenza A H1N1 A/Brisbane/59/2007)
[7] = target: 192C4 (influenza A H1N1 A/Brisbane/59/2007)
[8] = target: 194E4 (influenza A H1N1 A/Brisbane/59/2007)
[9] = target: 230G9 (influenza A H1N1 A/Brisbane/59/2007)
[10] = target: 239D2 (influenza A H1N1 A/Brisbane/59/2007)
[11] = target: 243D6 (influenza A H1N1 A/Brisbane/59/2007)
[12] = target: 251C8 (influenza A H1N1 A/Brisbane/59/2007)
[13] = target: 252B8 (influenza A H1N1 A/Brisbane/59/2007)
[14] = target: 252F5 (influenza A H1N1 A/Brisbane/59/2007)
[15] = target: 25304 (influenza A H1N1 A/Brisbane/59/2007)

B1: CR6261 (antibody, V domains shown)
VH: EVQLVESGAEVKKPGSSVKVSCKASGGPFRSYAISWVRQAPGQGPEWMGGIIPIFGTTKYAPKFQGRVTITADDFAGTVYMELSSLRSEDTAMYYCAKHMGYQVRETMDVWGKGTTVTVSS
VL: QSVLTQPPSVSAAPGQKVTISCSGSSSNIGNDYVSWYQQLPGTAPKLLIYDNNKRPSGIPDRFSGSKSGTSATLGITGLQTGDEANYYCATWDRRPTAYVVFGGGTKLTVLG
CR6261 binding signal [1]: 337000 | CR6261 binding signal [2]: 521000 | CR6261 binding signal [3]: 1.18e+06 | CR6261 binding signal [4]: 233000 | CR6261 binding signal [5]: 800000 | CR6261 binding signal [6]: 880000 | CR6261 binding signal [7]: 343000 | CR6261 binding signal [8]: 409000 | CR6261 binding signal [9]: 855000 | CR6261 binding signal [10]: 570000 | CR6261 binding signal [11]: 132000 | CR6261 binding signal [12]: 270000 | CR6261 binding signal [13]: 285000 | CR6261 binding signal [14]: 422000 | CR6261 binding signal [15]: 396000
